Kd and kon data for 2 molecules are collected here from patent US20170015742A1 (published 2017).

As usually defined, the Kd is the constant that tells how readily two partners part at equilibrium. One may read the kon as the second-order rate constant of association. A higher kon goes with faster complex formation.

The target of one experiment is VEGF-A (UniProt P15692-4 27-191, limits assumed). In words: SPR (Biacore), DVD-Ig captured by anti-human Fc, antigen injected. As for the experimental part: (§1) For example, approximately 9000 RU of goat anti-human Fc specific polyclonal antibody (Thermo Fisher Scientific Inc., Rockford, Ill.) diluted in 10 mM sodium acetate (pH 4.5) is directly immobilized across a CM5 research grade biosensor chip using a standard amine coupling kit according to manufacturer's instructions and procedures at 25 μg/ml. Unreacted moieties on the biosensor surface were blocked with ethanolamine. For kinetic analysis, rate equations derived from the 1:1 Langmuir binding model were fitted simultaneously to multiple antigen injections (using global fit analysis) with the use of Scrubber 2 (BioLogic Software), Biacore Biaevaluation 4.0.1 software or Biacore T100 Evaluation software. Purified antibodies or DVD-Ig molecules were diluted in running buffer for capture across goat anti-human Fc reaction surfaces. Antibodies or DVD-Ig molecules to be captured as a ligand (1 μg/ml) were injected over reaction matrices at a flow rate of 10 μl/minute. During the assay, all measurements were referenced against the capture surface alone (i.e., with no captured antibody or DVD-Ig molecule). […] The equilibrium dissociation constant KD (M) of the reaction between antibodies and the target antigen was then calculated from the kinetic rate constants by the following formula: KD=Koff/Kₒₙ. Binding was recorded as a function of time and kinetic rate constants were calculated.
VEGF-A, sequence (P15692 other isoform, or with tags, fused parts or gaps limits assumed): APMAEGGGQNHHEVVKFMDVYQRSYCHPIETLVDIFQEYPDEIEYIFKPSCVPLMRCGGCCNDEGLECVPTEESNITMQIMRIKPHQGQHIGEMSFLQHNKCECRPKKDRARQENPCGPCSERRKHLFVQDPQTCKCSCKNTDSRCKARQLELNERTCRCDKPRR

Another experiment addresses PDGF-BB (UniProt P01127 82-190). The experiment is described as above. As for the experimental part:
as §1

PDGF-BB, sequence (P01127 82-190): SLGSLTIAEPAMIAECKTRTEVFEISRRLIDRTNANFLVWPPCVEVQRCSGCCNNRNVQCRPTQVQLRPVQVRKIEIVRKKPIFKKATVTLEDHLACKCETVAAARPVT

B1: 1E3.4_GS_3E2.1 (PR-1612495) (bispecific antibody, human IgG1, kappa, L234A L235A)
heavy: EIQLVQSGSELKKPGASVKVSCKASGYPFTNSGMYWVKQAPGQGLEYMGWINTEAGKPTYADDFKGRFVFSLDTSVSTAYLQISSLKAEDTAVYFCARWGYISDNSYGWFDYWGQGTLVTVSSGGGGSGGGGSEVQLVQSGAEVKKPGSSVKVSCKASGYTFTESYMYWVKQAPGQGLELIGRIDPEDGSTDYVEKFKNKATLTADKSTSTAYMELSSLRSEDTAVYFCARFGARSYFYPMDAWGQGTTVTVSSASTKGPSVFPLAPSSKSTSGGTAALGCLVKDYFPEPVTVSWNSGALTSGVHTFPAVLQSSGLYSLSSVVTVPSSSLGTQTYICNVNHKPSNTKVDKKVEPKSCDKTHTCPPCPAPEAAGGPSVFLFPPKPKDTLMISRTPEVTCVVVDVSHEDPEVKFNWYVDGVEVHNAKTKPREEQYNSTYRVVSVLTVLHQDWLNGKEYKCKVSNKALPAPIEKTISKAKGQPREPQVYTLPPSREEMTKNQVSLTCLVKGFYPSDIAVEWESNGQPENNYKTTPPVLDSDGSFFLYSKLTVDKSRWQQGNVFSCSVMHEALHNAYTQKSLSLSPGK
light: ATQLTQSPSSLSASVGDRVTISCRASEGVYSYMHWYQQKPGKQPKLLIYKASNLASGVPSRFSGSGSGTDFTLTISSLQPEDFATYFCHQNWNDPLTFGQGTKLEIKGGSGGGGSGGETVLTQSPATLSLSPGERATLSCRASESVSTLMHWYQQKPGQQPRLLIYGASNLESGVPARFSGSGSGTDFTLTISSLEPEDFAVYFCQQSWNDPWTFGGGTKVEIKRTVAAPSVFIFPPSDEQLKSGTASVVCLLNNFYPREAKVQWKVDNALQSGNSQESVTEQDSKDSTYSLSSTLTLSKADYEKHKVYACEVTHQGLSSPVTKSFNRGEC
notes: DVD-Ig: outer hBEW-1E3.4 (VEGF), inner hBFU-3E2.1 (PDGF), linkers GS-H10 / GS-L10(dR); Human IgG1 L234A, L235A, H435A with kappa light chain
Turning to B1, in the experiment with VEGF-A, the Kd amounted to 0.0098 nM and the kon was 5.3e+06 M⁻¹ s⁻¹. In addition, in the experiment with PDGF-BB, the Kd amounted to 0.012 nM and the kon came to 4.5e+07 M⁻¹ s⁻¹.

B2: 1B10.1_GS_CL-33675 (PR-1611292) (bispecific antibody, human IgG1, kappa, L234A L235A)
heavy: EVQLVESGGGLVQPGGSLRLSCAASGFSFSKYDMAWFRQAPGKGLEWVASITTSGVGTYYRDSVKGRFTVSRDNAKSTLYLQMNSLRAEDTAVYYCARGYGAMDAWGQGTTVTVSSGGGGSGGGGSEVTLRESGPALVKPTQTLTLTCTFSGFSLSTYGMGVGWIRQPPGKALEWLANIWWDDDKYYNPSLKNRLTISKDTSKNQVVLTMTNMDPVDTATYYCARIESSGPKYSFDYWGQGTMVTVSSASTKGPSVFPLAPSSKSTSGGTAALGCLVKDYFPEPVTVSWNSGALTSGVHTFPAVLQSSGLYSLSSVVTVPSSSLGTQTYICNVNHKPSNTKVDKKVEPKSCDKTHTCPPCPAPEAAGGPSVFLFPPKPKDTLMISRTPEVTCVVVDVSHEDPEVKFNWYVDGVEVHNAKTKPREEQYNSTYRVVSVLTVLHQDWLNGKEYKCKVSNKALPAPIEKTISKAKGQPREPQVYTLPPSREEMTKNQVSLTCLVKGFYPSDIAVEWESNGQPENNYKTTPPVLDSDGSFFLYSKLTVDKSRWQQGNVFSCSVMHEALHNAYTQKSLSLSPGK
light: DIQMTQSPSSLSASVGDRVTITCKASQDIDDYLSWYQQKPGKSPKLVIYAATRLADGVPSRFSGSGSGTDYTLTISSLQPEDFATYYCLQSSSTPWTFGGGTKVEIKGGSGGGGSGGEIVLTQSPGTLSLSPGERATLSCRASSGSIWYSFVSWYQQKPGQAPRLLIYADDQRASGIPDRFSGSGSGTDFTLTISRLEPEDFAVYYCQSYGINIDVVFGGGTKVEIKRTVAAPSVFIFPPSDEQLKSGTASVVCLLNNFYPREAKVQWKVDNALQSGNSQESVTEQDSKDSTYSLSSTLTLSKADYEKHKVYACEVTHQGLSSPVTKSFNRGEC
notes: DVD-Ig: outer hBEW-1B10.1 (VEGF), inner CL-33675 (PDGF), linkers GS-H10 / GS-L10(dR); Human IgG1 L234A, L235A, H435A with kappa light chain
In the case of B2, the Kd with VEGF-A turned out to be 0.062 nM; with PDGF-BB, 0.00054 nM. Moreover, the kon with VEGF-A stood at 2.1e+06 M⁻¹ s⁻¹; in the experiment with PDGF-BB it was 2.2e+07 M⁻¹ s⁻¹.
